Among the data in PMC8967877 (2022) are Kd values, retold here.

Square brackets hold non-standard residues; d marks the D form. Ends that are not written are not given here. pT = C[C@@H](OP(=O)(O)O)[C@H](N)C(=O)O Some results are limits rather than exact numbers.

What all share (assay): FP
Assay [1] addresses wild-type murine PNKP (murine, UniProt Q9JLV6 1-522).
The target in assay [2] is P101L PNKP (human) (human, UniProt Q96T60-1 1-521, P101L).
The target in assay [3] is Polynucleotide Kinase-Phosphatase (PNKP), human, wild-type (human, UniProt Q96T60-1 1-521).

Chain of wild-type murine PNKP (Q9JLV6 whole entry): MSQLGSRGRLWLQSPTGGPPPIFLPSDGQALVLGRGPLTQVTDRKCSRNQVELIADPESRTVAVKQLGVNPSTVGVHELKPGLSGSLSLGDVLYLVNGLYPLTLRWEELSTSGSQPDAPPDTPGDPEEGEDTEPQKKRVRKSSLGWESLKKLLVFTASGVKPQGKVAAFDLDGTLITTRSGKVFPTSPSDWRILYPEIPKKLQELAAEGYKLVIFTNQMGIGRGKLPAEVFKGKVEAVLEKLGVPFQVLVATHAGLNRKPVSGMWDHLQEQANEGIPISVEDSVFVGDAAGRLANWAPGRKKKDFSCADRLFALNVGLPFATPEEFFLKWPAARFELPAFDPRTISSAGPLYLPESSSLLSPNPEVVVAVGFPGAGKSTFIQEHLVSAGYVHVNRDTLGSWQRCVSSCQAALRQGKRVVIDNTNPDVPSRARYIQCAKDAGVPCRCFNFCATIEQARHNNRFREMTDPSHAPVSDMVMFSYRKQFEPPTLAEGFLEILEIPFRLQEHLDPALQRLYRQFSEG

For GGYDES[pT]DEESKK (also: fluorescent dye label, position not given here) [fluorescent-dye labeled XRCC4-based phosphopeptide (GGYDES-pT-DEESKK)], the Kd (commonly a measure of binding affinity in units of concentration) was 0.76 µM in assay [1], > 21 µM in assay [2] and 1.08 µM in assay [3].
